Measurements: patent US20160215048A1 (published 2016)

Columns and labels:
[1] = molecular target: T1, IL-18/IL-18BP complex (human, UniProt Q14116 37-193); assay: Luminex; mAb on IL-18 complexed to bead-linked IL-18BP
T1 construct: Complex of IL-18 with IL-18BP; in the third Luminex screening step IL-18BP was linked to the beads and then complexed to IL-18; Stoichiometry 1:1 is only cited from the literature; also called IL-18 previously complexed to IL-18BP; complex IL-18/IL-18BP
T1 sequence 1: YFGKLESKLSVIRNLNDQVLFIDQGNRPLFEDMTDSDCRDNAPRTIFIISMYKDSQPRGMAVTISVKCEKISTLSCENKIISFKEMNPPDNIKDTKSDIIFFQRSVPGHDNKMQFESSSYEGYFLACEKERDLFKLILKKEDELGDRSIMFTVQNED
T1 sequence 2: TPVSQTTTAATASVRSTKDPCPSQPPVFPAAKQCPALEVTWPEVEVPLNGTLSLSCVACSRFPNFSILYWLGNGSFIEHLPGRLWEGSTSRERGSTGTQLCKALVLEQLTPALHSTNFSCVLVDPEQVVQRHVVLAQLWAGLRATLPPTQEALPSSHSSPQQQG

[2] = molecular target: T2, recombinant human IL-18 (human, UniProt Q14116 37-193); assay: Luminex; mAb on IL-18 beads
T2 construct: Commercial recombinant human IL-18; In the Luminex screening it was attached to beads; also called Interleukin-18; human interleukin-18
T2 sequence (looked up): T1 sequence 1

[3] = molecular target: T2, recombinant human IL-18; assay: Luminex; biotinylated IL-18BP (competitor) on IL-18 beads pre-bound with the mAb; the signal is IL-18BP binding
[4] = molecular target: T1, IL-18/IL-18BP complex; assay: Luminex third screening against first screening

B1: Antibody 111A6 (antibody, V domains shown)
VH: EVQLQQSGAELVKPGASVKLSCTASGFKIKDTYIHWVIQRPAQGLEWIGRIDPANGNTIYGSKFQGKATLTADTSSNTAYIHLSSLTSGDSAVYYCAGYVWFAYWGQGTLVTVSA
VL: DVVMTQVPLSLPVSLGDQASISCRSSQRLVHSNGNTYLHWFLQKPGQSPKLLIYTVSNRFSGVPDRFSGSGSGTDFTLKISRVEAEDLGVYFCSQSTLVPWTFGGGTKLEIK
Fluorescence intensity [1]: 42 fluorescence intensity
Fluorescence intensity [2]: 25900 fluorescence intensity
Fluorescence intensity (IL-18BP binding on IL-18 previously complexed to monoclonal antibody) [3]: 1400 fluorescence intensity

B2: Antibody 131E8 (antibody)
chain 1: QVQLKQSRPGPVQPSQSLSITCTVSGFSLPNYGVHWVRQPPGKGLEWLGVIWSGGSTDYNAAFKSRLSISKDNSKSQVFFKMNSLQADDTAIYYCARNFYSKYDYAMDYWGQGTSVTVSS
chain 2: QVQLQQPGSVLVRPGASVKLSCKASGYTFTSYWMHWVKQRPGQGLEWIGNINPNSGSTNYNEKFKGKATLTVDTSSSTAYMDLSSLTSEDSAVYYCARLGDYWGQGTTLTVSS
chain 3: ENVLTQSPAIMSASPGEKVTMTCSASSSVSYMHWYQQKSSTSPKLWIYDTSKLASGVPGRFSGSGSGNSYSLTISSMEAEDVATYYCFQGSGYPLTFGSGTKLEIK
fold inhibition of binding to IL-18 complexed to IL-18BP against binding to IL-18 alone [4]: > 500 fold
Fluorescence intensity [1]: 36 fluorescence intensity
Fluorescence intensity [2]: 25400 fluorescence intensity
Fluorescence intensity (IL-18BP binding on IL-18 previously complexed to monoclonal antibody) [3]: 1390 fluorescence intensity
